Test results reported in patent US20110286958A1, “HPMA POLYMER PLATINUM CHELATES” (Access Pharmaceuticals, Inc., priority 2010, published 2011).
Ends that are not written are not given here. Ama = amidomalonate chelating group bound to Pt

Experiments:
[1] = 27° C.; cited from earlier work
[2] = Release of small molecule Pt species from polymer-linker-Pt complexes at 37° C. in PBS; type: physicochemical; details: for Percent small platinum released from 1R,2R-DACH Pt(II) complex at 37° C. in PBS, 3 hours / Percent small platinum released from 1R,2R-DACH Pt(II) complex at 37° C. in PBS, 24 hours: 1R,2R-DACH stable chelate; for Percent small platinum released from cis-diammine Pt(II) complex at 37° C. in PBS, 3 hours / Percent small platinum released from cis-diammine Pt(II) complex at 37° C. in PBS, 24 hours: cis-diammine stable ligands
Source text: The compound tested comprised a poly(N-(2-hydroxypropyl)methacrylamide (10%)-co-methacrylamide (90%)) backbone polymer and either cis-diammine or 1R,2R-diaminocyclohexane (DACH) as the stable ligands/chelate of the Pt complex. The leaving-ligand comprised an N,O bidentate ligand with amidoaspartate (Asp) or amidomalonate (Ama).

[3] = Relative toxicity of Compound 1 made by two different processes, body weight in mice; type: in vivo, Female C57BL/6 mice; details: murine study; new process versus process of U.S. Pat. No. 7,166,733
Description: Biological evaluation can be carried out with the methods as described below.
Female C57BL/6 mice were randomized into 7 groups of 5 mice each. Each mouse was identified by ear notch and followed individually throughout the study. Animals were observed and weighed prior to dosing for establishment of dosing volumes. All mice were dosed by a single IP injection with either a) Compound 1 made by the processes described herein, b) Compound 1 made by the process described in U.S. Pat. No. 7,166,733, or c) vehicle control. Three doses of each compound were tested: 75 mg Pt/kg, 100 mg Pt/kg and 150 mg Pt/kg. Test compounds were dissolved in isotonic glucose and administered in a volume of 0.4 mL per 20 g body weight. Gross observations and body weights were recorded daily for 14 days. Percent body weight change for each animal on each day was calculated as the percent change from their body weight recorded on day 1 just prior to injection of compounds.

Row | Compound | pKa1 [1] | pKa2 [1] | Percent small platinum released from 1R,2R-DACH Pt(II) complex at 37° C. in PBS, 3 hours [2] [%] | Percent small platinum released from 1R,2R-DACH Pt(II) complex at 37° C. in PBS, 24 hours [2] [%] | Percent small platinum released from cis-diammine Pt(II) complex at 37° C. in PBS, 3 hours [2] [%] | Percent small platinum released from cis-diammine Pt(II) complex at 37° C. in PBS, 24 hours [2] [%] | safety profile [3]
1 | NC1CCCCC1N.O.O.O=[N+]([O-])[O-].O=[N+]([O-])[O-].[Pt+2] (stereo not drawn) [diaqua platinum species, 1R,2R-DACH-diaquaplatinum (II) dinitrate] | 5.4 | 7.2 |  |  |  |  | 
2 | Gly-Phe-Leu-Gly-Ama=Pt= (GFLG-Ama; also: Pt complex via Ama (=Pt=)) |  |  | 0.7 | 2.4 | 0.7 | 2.1 | 
3 | Gly-Phe-Leu-Gly-Asp=Pt= (GFLGD; also: Pt conjugation (Asp=Pt=)) |  |  | 2.0 | 6.5 | 1.5 | 4.7 | 
4 | poly(HPMA)-GGG-Ama=PtDACH [Compound 1] |  |  |  |  |  |  | safety profile identical to that of Compound 1 made by the processes described previously
